In assay [1] the target is t-SNARE heterodimer with syntaxin-1A labeled at position 203 with cy5 (N-N FRET pair) (rat) (UniProt P32851). Kind of assay: FRET or BRET; single-molecule FRET (prism-based TIRF, 100-ms resolution) between cy3-syb2 in v-SNARE 13 nm nanodiscs (ND1) and cy5-syntaxin-1A in t-SNARE nanodiscs; NDs (5 µM) incubated at room temperature 30 min, diluted to 10 pM; no syt1; with EGTA or 500 µM free Ca2+ (Ca2+ had no effect); 100 mM KCl, 25 mM HEPES pH 7.4. (In BRET a luciferase serves as donor, and the signal depends on an acceptor being close.)

Assay [2] concerns the target t-SNARE heterodimer with syntaxin-1A labeled at position 241 with cy5 (C-C FRET pair) (rat) (UniProt P32851). The assay is described as above.
Assay [3] has the same target. Kind of assay: FRET or BRET; single-molecule FRET as above, with full-length syt1 co-reconstituted in the v-SNARE nanodisc; values in the absence of Ca2+ (EGTA); subsequent Ca2+ (500 µM free) had only subtle effects, with an increase in the highest C-C FRET peak.

Regarding “syb2 labeled at position 33 with cy3 (N-N FRET pair) (from UniProt P63045 1-116) (natural protein)”, the FRET ratio (R), peak of the distribution, N-N pair in assay [1] came to 0.7.
For the substance “syb2 labeled at position 72 with cy3 (C-C FRET pair) (from UniProt P63045 1-116) (natural protein)”, in assay [2], the FRET ratio (R), peak of the distribution, C-C pair turned out to be 0.2. In assay [3], the FRET ratio (R), C-C pair, first of three states (with apo-syt1) stood at 0.2; the FRET ratio (R), C-C pair, second of three states (with apo-syt1) came out at 0.5; the FRET ratio (R), C-C pair, third of three states (with apo-syt1) turned out to be 0.7.
